Test results reported in the supplement of paper PMC10126150.
± gives the standard deviation of the averaged measurements.

Tested on: ATP
Experiment: switch fluorescence ratio, 500 uM ATP over buffer (Cy3 cluster intensity, sum of 5 cycles each) (fold (ratio)); higher = stronger signal-on switching upon ATP binding; sequences stand for … in TCGTCGGCAGCGTCAGATGTGTATAAGAGACAGTTTTTTTTTTTTTTTTTTTTTTTTT…TC
Conditions: aptamer strand: ATP DNA aptamer (quencher-CACCTGGGGGAGTATTGCGGAGGAAGG + anchor), 100 nM annealed; ATP concentration: 500 uM
How it was run: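 Between each of five buffer/ATP cycles, the flow-cell was stripped with NaOH and re-annealed. Each cycle imaged Cy3-labelled switching-strand clusters, annealed to 100 nM quencher-labelled ATP aptamer on a modified Illumina MiSeq flow-cell, first in selection buffer and then after 15 min with 500 uM ATP at 22 °C. The fluorescence ratio is summed target-cycle over summed buffer-cycle Cy3 intensity per cluster, averaged per switch-domain sequence, with clusters outside 100-1000 RFU excluded.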
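Also: ATP exposure 15 min at 22 °C before imaging.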

Sequence | switch fluorescence ratio
ATTAGTGTCA | 1 ± 0.035
ATTAGTGTCG | 1.01 ± 0.046
ATTAGTGTGG | 1 ± 0.033
ATTAGTTCCG | 0.9814 ± 0.0025
ATTATAAGGT | 1.06 ± 0.0055
ATTATACAGC | 0.993 ± 0.025
ATTATACTGG | 1 ± 0.033
ATTATATCCC | 1.06 ± 0.026
ATTATATGGT | 0.98 ± 0.029
ATTATCGTAG | 0.994 ± 0.035
ATTATCTAAT | 1 ± 0.017
ATTATGGACG | 1.06 ± 0.073
ATTATGGGGG | 0.996 ± 0.036
ATTATGGGT | 0.9931 ± 0.0086
ATTATGGTTC | 1 ± 0.021
ATTATGTCTT | 0.9878 ± 0.0094
ATTATTATGG | 1.01 ± 0.015
ATTATTGATA | 0.997 ± 0.036
ATTATTGGCA | 0.999 ± 0.0024
ATTATTGGGC | 0.981 ± 0.035
ATTATTTTAC | 0.976 ± 0.036
ATTCAACGGT | 1.02 ± 0.0048
ATTCAAGCCT | 1.15 ± 0.047
ATTCACATAT | 1.11 ± 0.02
ATTCACGGGC | 1.08 ± 0.035

Sequence | switch fluorescence ratio
ATTCAGAGTG | 0.965 ± 0.02
ATTCAGATCG | 0.999 ± 0.034
ATTCAGTTAT | 0.997 ± 0.021
ATTCAGTTGG | 0.9776 ± 0.0071
ATTCATAGGT | 0.992 ± 0.014
ATTCATGCTC | 1.03 ± 0.031
ATTCATTGTC | 1.09 ± 0.11
ATTCCAAGTG | 1.03 ± 0.056
ATTCCCGGGG | 1.06 ± 0.059
ATTCCCGGTC | 1.01 ± 0.066
ATTCCGATTG | 1.07 ± 0.031
ATTCGGAATA | 1.06 ± 0.016
ATTCGGGAAG | 1.003 ± 0.0078
ATTCGGGACC | 0.973 ± 0.019
ATTCGGGGGT | 0.993 ± 0.023
ATTCGGTCGA | 0.976 ± 0.039
ATTCGTTCGA | 0.9955 ± 0.0033
ATTCGTTTGT | 0.9869 ± 0.0038
ATTCTACGGA | 1.02 ± 0.021
ATTCTAGGA | 0.985 ± 0.02
ATTCTAGGTA | 1 ± 0.015
ATTCTATATC | 0.97 ± 0.021
ATTCTCGTGG | 0.997 ± 0.036
ATTCTGATGC | 1.05 ± 0.0092
ATTCTGCGGA | 1.01 ± 0.019

Sequence | switch fluorescence ratio
ATTCTGGGGA | 0.988 ± 0.026
ATTCTGGTGG | 1.01 ± 0.046
ATTCTTTACA | 1.06 ± 0.014
ATTCTTTTGC | 1.03 ± 0.06
ATTGAAATCA | 0.987 ± 0.018
ATTGAACGGA | 1 ± 0.059
ATTGAAGCCT | 1.15 ± 0.013
ATTGAAGGCA | 0.966 ± 0.011
ATTGAAGTGC | 1.01 ± 0.02
ATTGAATAGG | 1.0089 ± 0.0003
ATTGAATTAG | 0.961 ± 0.011
ATTGACCCCT | 1.08 ± 0.015
ATTGACGATC | 0.994 ± 0.016
ATTGACGTAC | 1.76 ± 0.083
ATTGAGCGGT | 0.983 ± 0.039
ATTGAGGCTC | 0.985 ± 0.012
ATTGATGAGT | 0.993 ± 0.04
ATTGATGATT | 0.993 ± 0.0075
ATTGATTAGG | 0.988 ± 0.043
ATTGATTCAA | 0.996 ± 0.02
ATTGATTGCT | 0.9989 ± 0.0036
ATTGATTTTT | 1.01 ± 0.019
ATTGCATTAA | 0.985 ± 0.033
ATTGCGGGCC | 1.02 ± 0.047
ATTGCGGGGA | 0.9848 ± 0.0072

Sequence | switch fluorescence ratio
ATTGCTTTTG | 0.99799 ± 0.00028
ATTGGAAGAC | 1.06 ± 0.12
ATTGGACATC | 1.11 ± 0.11
ATTGGAGCGT | 0.986 ± 0.0013
ATTGGAGTAT | 0.9776 ± 0.0089
ATTGGCACGG | 0.986 ± 0.034
ATTGGCTAGG | 0.999 ± 0.037
ATTGGCTGAC | 1.13 ± 0.029
ATTGGCTGGT | 0.9998 ± 0.0052
ATTGGCTTTT | 0.965 ± 0.011
ATTGGGAAGG | 0.965 ± 0.039
ATTGGGATGG | 1 ± 0.014
ATTGGGCAGC | 1 ± 0.027
ATTGGGGCTT | 1.01 ± 0.018
ATTGGGGGTA | 0.977 ± 0.028
ATTGGGGGTT | 0.978 ± 0.018
ATTGGTAGGG | 0.9858 ± 0.004
ATTGGTGCT | 1.001 ± 0.007
ATTGGTGTAA | 1.01 ± 0.015
ATTGGTTGGT | 0.978 ± 0.048
ATTGTAATTT | 1.01 ± 0.026
ATTGTACGGT | 1.03 ± 0.013
ATTGTAGTCA | 0.973 ± 0.019
ATTGTATTTT | 0.979 ± 0.022
ATTGTGAGGG | 0.993 ± 0.011

Sequence | switch fluorescence ratio
ATTGTGGATC | 1.03 ± 0.031
ATTGTGGGGC | 1 ± 0.022
ATTGTGGGGG | 0.991 ± 0.016
ATTGTTATTG | 0.967 ± 0.065
ATTGTTCTGG | 1.004 ± 0.0021
ATTGTTGAAT | 0.993 ± 0.015
ATTGTTGGAT | 1.013 ± 0.0067
ATTGTTTTAC | 1.02 ± 0.014
ATTGTTTTAG | 1.01 ± 0.025
ATTGTTTTCG | 1 ± 0.029
ATTTAAAATG | 0.994 ± 0.033
ATTTAAGGTA | 1.01 ± 0.024
ATTTAATATG | 0.97 ± 0.011
ATTTAATCCT | 1.09 ± 0.038
ATTTAATCGC | 1.01 ± 0.011
ATTTACAAGT | 1.003 ± 0.0063
ATTTACAGGT | 1.033 ± 0.0098
ATTTACATTA | 1.03 ± 0.021
ATTTACCGGT | 1.03 ± 0.022
ATTTACGGCA | 1.11 ± 0.021
ATTTACGGTG | 1 ± 0.022
ATTTATATCT | 1 ± 0.015
ATTTCACTGA | 1.03 ± 0.011
ATTTCACTTT | 0.9915 ± 0.0085
ATTTCAGAGG | 1.02 ± 0.017

Sequence | switch fluorescence ratio
ATTTCAGCGA | 1.09 ± 0.014
ATTTCAGGGG | 1.09 ± 0.061
ATTTCAGGGT | 1 ± 0.015
ATTTCGAATG | 0.9827 ± 0.0076
ATTTCGATAT | 0.979 ± 0.038
ATTTCGATGT | 1.03 ± 0.031
ATTTCGGAGA | 0.971 ± 0.011
ATTTCGGGAG | 1.01 ± 0.052
ATTTCGGTCA | 0.9919 ± 0.0066
ATTTCGTGCG | 1.01 ± 0.061
ATTTCGTTGT | 1 ± 0.07
ATTTCTAGAT | 1.024 ± 0.0093
ATTTCTCTTG | 0.998 ± 0.025
ATTTGAAGTA | 1.01 ± 0.04
ATTTGACCAT | 1.13 ± 0.18
ATTTGACTTC | 1.12 ± 0.19
ATTTGAGAAA | 1.01 ± 0.025
ATTTGAGGGG | 0.998 ± 0.035
ATTTGAGGTA | 1.01 ± 0.012
ATTTGAGGTG | 1.03 ± 0.038
ATTTGATCTG | 0.985 ± 0.014
ATTTGATTCT | 0.984 ± 0.023
ATTTGATTGT | 0.98 ± 0.034
ATTTGCAAAG | 1.12 ± 0.21
ATTTGCATGG | 1.09 ± 0.2

Sequence | switch fluorescence ratio
ATTTGCTCGG | 1.036 ± 0.0097
ATTTGGCGT | 1.01 ± 0.018
ATTTGTATTT | 0.992 ± 0.026
ATTTGTCTGG | 0.9643 ± 0.0028
ATTTGTGAAC | 1.02 ± 0.024
ATTTGTGAGG | 0.9782 ± 0.0093
ATTTGTTCTG | 0.962 ± 0.038
ATTTGTTGCT | 0.981 ± 0.025
ATTTGTTGT | 0.973 ± 0.052
ATTTGTTGTG | 1.01 ± 0.041
ATTTTAATAA | 0.99 ± 0.017
ATTTTAATCG | 0.985 ± 0.03
ATTTTAATGA | 0.934 ± 0.028
ATTTTACCTC | 1.05 ± 0.13
ATTTTAGCTC | 0.984 ± 0.015
ATTTTATACA | 0.996 ± 0.03
ATTTTATAGT | 1 ± 0.055
ATTTTATGGG | 0.999 ± 0.019
ATTTTATTAT | 1.01 ± 0.024
ATTTTATTCT | 1.003 ± 0.0076
ATTTTCATAT | 0.98 ± 0.021
ATTTTCATTA | 0.996 ± 0.0096
ATTTTCGCAT | 1.19 ± 0.051
ATTTTCTATG | 0.978 ± 0.029
ATTTTCTTAG | 0.999 ± 0.018

Sequence | switch fluorescence ratio
ATTTTGAGGT | 0.987 ± 0.018
ATTTTGATTT | 1 ± 0.028
ATTTTGCTCG | 0.999 ± 0.021
ATTTTGCTGG | 0.999 ± 0.011
ATTTTGGCGT | 0.982 ± 0.037
ATTTTGGGTC | 0.991 ± 0.047
ATTTTGGGTG | 1.08 ± 0.049
ATTTTGTTCG | 1.04 ± 0.011
ATTTTGTTTC | 0.987 ± 0.032
ATTTTGTTTT | 1.01 ± 0.061
ATTTTTACAG | 1.03 ± 0.032
ATTTTTACGG | 1.01 ± 0.013
ATTTTTACTT | 0.974 ± 0.032
ATTTTTCAGC | 1.003 ± 0.0042
ATTTTTGACA | 1.001 ± 0.0037
ATTTTTGATG | 1.02 ± 0.073
ATTTTTGGCT | 0.995 ± 0.042
ATTTTTGTCA | 0.985 ± 0.015
ATTTTTTACA | 1.082 ± 0.0069
ATTTTTTGAC | 0.9915 ± 0.0011
ATTTTTTGGT | 0.9981 ± 0.006
ATTTTTTGTT | 0.976 ± 0.047
ATTTTTTTAG | 0.988 ± 0.02
CAAAAAAAGA | 0.986 ± 0.067
CAAAAAACCT | 1.55 ± 0.55
